Experiments:
Format in all cases: biochemical, Quillaja saponaria
[1] = Experiment 5-1: screening of additional glucosidases for deglycosylation with purified QS-18 (0.04 mg/ml) at pH 7.5 and 30 deg C; settings: pH 7.5, 30 degrees C, 18 hours, LCMS/MS
Experimental: The 94 additional genes, together with positive control (DNA encoding SEQ ID No. 262) and negative control, were transformed, expressed, lysed and reacted in the same manner as described above for Experiment 4-1, except the reaction was incubated at 30 degrees C. for 18 hours.
Samples were analysed by LCMS/MS according to the procedure in Experiment 4-1.

[2] = Experiment 5-2: screening of additional glucosidases for deglycosylation with QS-18 in crude bark extract (80%) at pH 6 and 35 deg C; settings: CBE 80%, pH 6, 35 deg C, 18 hours; UV HPLC
Experimental: A plate was lysed at pH 6 as described in Experiment 4-2. 40 uL of clarified lysate was transferred to a reaction plate
The pH of CBE was adjusted to pH 6 by dropwise addition of 2M NaOH with stirring. 160 uL of pH 6 CBE was added to each well of the reaction plate. The reaction plate was sealed and incubated at 35 deg C. with shaking for 18 hours.
The reaction plate was quenched by adding 200 uL of MeCN (2% acetic acid (AcOH), 1 mg/mL hexanophenone) to each well of the plates. The quenched reaction plate was re-sealed and incubated at 20 deg C. with shaking for 10 min. The reaction plate was then centrifuged (10 min, 4 degC).
200 uL was transferred from each well of the quenched plate to the corresponding wells of a fresh 96 well plate and sealed. The plate was analysed by UV HPLC with the method of Experiment 4-4.

[3] = Experiment 5-3: screening of additional glucosidases for deglycosylation with QS-18 in treated bark extract (80%) at pH 6 and 35 deg C; settings: TBE 80% (QS-21 approx. 4 g/L), pH 6, 35 deg C; UV HPLC
Experimental: Experiment 5-1 was repeated, replacing CBE with Treated Bark Extract (TBE) at pH 6. TBE was prepared from CBE by PVPP treatment and concentration, to provide TBE with a QS-21 concentration of approximately 4 g/L. TBE was adjusted to pH 6 by dropwise addition of 2M NaOH with stirring.

| Molecule | Experiment 5-1 % conv [1] [%] | Experiment 5-2 % conv [2] [%] | Experiment 5-3 % conv [3] [%] |
| --- | --- | --- | --- |
| 842 (protein, listed as Nonomuraea sp.) MNLQDKASLLSGRDFWSTKPVGDVPAAVLSDGPHGVRRQTGEADHVGIHESLPATCFPPAVAVGSSWDPAVAGRLAAAVAVEARALDVQINLGPGVNIKRSPLCGRNFEYYSEDPLLTGVLAAAHVEALQAGGVGASVKHFAANNQETGRMRVSAEIDERTLREIYLPAFERVVKHARPATVMAAYNKVNGVYASQHPWLLTRVLREEWGFDGVVVSDWGAVNDRVAALKAGLDLEMPGNPANDAMIVQAVRDGELDEAVVDRSVARVRAMVRAWRPEPAAFDADAHHALARELAAECAVLLKNDGDTLPIRADVQTIAVLGPFATEPRFQGGGSSHVTPTRVDSPLEEIRRLAGDRVVTADPDDADLAIVFAGPADLDESEGYDRAGLDLPAEQVELIRATAAAARRTVVVLSNGGVVSLEGWHDEVDAILEGWLLGQAGGGAIADLLFGVAAPSGRLAETIPMRLQDTASYLNFPGEQDVVRYGEGVMVGYRYHETAGRPVRYPFGHGLTYTTFAVSDLTVRVTGDDSARVSVTVANTGRRYGKHVVQLYVATQAGPVRRPARELRAFTKVGLEPGRSTTVTFDLDARAFAYWDVKEGRWLVAPGDYTVQIGENASAVVAEETIELAGEVIARELTLDSSVGEWFAHPQVGPVLMRHVAATMTEEQRAAAAEHQDLLRMIESLPMHQFLSPMGVRLPDQAVREMMELSRRPQ | 64.0 | <0.5 | <0.5 |
| 838 (protein, Bifidobacterium stellenboschense) MSEHTYPSVKDLTLEEKASLTSGGDAWHLQGVEAKGIPGYMITDGPHGLRKSLATSTGETDLDDSVPATCFPPAAGLSSSWNPSLVRKVGEAMGEECIQEKVAVILGPGVNIKRNPLGGRCFEYWSEDPYLAGHEAVGIVEGVQSKGVGTSLKHFAVNNQETDRLRVDARVSQRALREIYLPAFEHIVKTAQPWTIMCSYNRVNGVHSAQNRWLLTDVLRDEWGFKGIVMSDWGADHDRVASVNAGLNLEMPPSGTDDEIVYAARDGRIDPAQLDRMAQGMIDLTDKARAAMSIDGYRFDVDAHDEVAHQAAVESMVLLKNEDAILPLKKDAKIAVIGEFARTPRYQGGGSSHITPTKMTSFLDTLAERGIKADFAPGFTLDLDPADSALELEAVETARDADVALLFLGLPEAAESEGFDRETLDMPAKQIELLAKVAAVNPNVAVVLSNGSVVSVAPWAGNAKGILESWLLGQAGGPALADVIFGEASPSGKLAQSIPLDINDDPSMLNWPGEEGHVDYGEGVFVGYRYYDTYDVAVDYPFGYGLSYASFEISDVHAEKTGANTASVTATVANVSDVDGAETVQVYVAPGKAEVARPSHELKGFAKVFLKAGESKTVTFDLDGRAFAYWSEKYGDWHIEAGAYGIEVGTSSRDIAATATVELEGDGKSLPLDEWSTYGEWEADPVGARVVAAVEAAGESGTLPKLPDNTMMRIFLKSMPINSMPMLMSDGGRRITAFMLDEYAKLTK | 53.4 | <0.5 | <0.5 |
| 886 (protein, listed as Brachyspira suanatina) MNDNKYSQKIKELMKEMTLEEKVSLLSGKDFWSTKAIDRLKIDSVYLTDGPHGVRKQSTESDELSLQKSVSSTCFPTACCSACSFDPNIMYEMGEAISREAKANKVSVVLGPGVNIKRSPLCGRNFEYFSEDPYLAGKMASGWINGLEDNGIQSSLKHFAANNQETLRLIIDSVVDERALREIYLYAFEIAVKEAKPSTVMCAYNSVNGTFASENKYLLTDILRDEWGFDGIVVSDWGAVNDRVEALKAGLDLQMPSTNGEDDRKVYNAVKETIIDEKILDKAVERLLYFSLYSMDNIYDNFDYDKEEHHNIARKIAENSIVLLKNQDKILPAKKESKIAVIGEFAQKPRYQGNGSSLINAYKIDTAEEYFKENNIEFDYAKGYDSNSADIDNALIEEAVNISKDKDIVIIFAGLINSYESEGFDRKHLNLPENHNHLIEEISKVNKNVVVVLSIGAPVLMPWIDKVKGVLNLYLAGEAAVSAAFNIIFGVVNPSGKLAESFPLSLEDNPSYKYFPGGNKAVEYRESIFVGYRYYDKAQKNVLFPFGFGLSYTTFQFSNLIVSDANTIAGLDNIHVVFDIKNTGDVFGCEVAQVYISAPENNVFKPHKELKSFIKVFLEPGETKTVILKLNKRSFSFYNADTKQYEIESGVYTIYIGNSSRNLLLSKTMEINSINYYQKRIDNYFNFKEINISDNEFQQLLGRKLKPINIKASKPYHLNNNLSDLLDNNIAKEFYNKLLSGLNDMFKDDKTDTKKMFESMMLETPLRSLHTMSGGIITREDVENLINTLNK | 55.5 | <0.5 | <0.5 |
| 814 (protein, listed as Bifidobacterium reuteri) MSETNATPTYPSVKDLTLEEKASLTSGGDAWHLQSVEHKGIPGYMITDGPHGLRKSLASNTSETDLNDSVPATCFPPAAGLSSSWNPALIRKVGEVMGEECVQEKVAVILGPGVNIKRNPLGGRCFEYWSEDPYLAGHEAVGIVEGVQSKGVGTSLKHFAANNQETDRLRVDARISQRALREIYLPAFEHIVKTAQPWTIMCSYNRINGVHSAQNHWLLTDVLRDEWGFKGIVMSDWGADHDRVASLNAGLNLEMPPSYTDDQIVYAARDGRIDPAQLDRMAQGMIDLTNKARAAMSIDGYRFDVDAHDEVARQAAVESIVMLKNEDAILPIDPAGGKKLAVIGEFARTPRYQGGGSSHITPTKMTSFLDALDERGIKADFAPGFTLDLAPADSALTLEAVETARDADVVLMFLGLPEEAESEGFDRTTLDIPAKQIELLRQVAAENPNVVVVLSNGSVVTVHPWADASKSILESWLLGQAGGRALADVVFGEASPSGKLAQSIPMDINDDPSMLNWPGEEGHVDYGEGVFVGYRYYDTYNKAVDYPFGYGLSYATFEIGDVAVAKTGANTASVTATVTNTSDTPAAETVQVYVAPGKADVARPVHELKGFEKVFLGAGESKTVTIELNERAFAYWSEKYNDWHVEAGEYTVEVGVSSRDIAASIAVTLDGDGKSMPLNEWSTFGEWSADPVGAKVVEAVGAAGERGDMPKLPDNDMMRLFLNSMPINSLPTLLGESGKDLTAFMLDEYAALTK | 58.4 | <0.5 | <0.5 |
| 885 (protein, listed as Bifidobacterium indicum) MTTDKHLQAKDLDIEKEASLTSGSDAWHLQGVPDQGYPEYMITDGPYGLRKATGSDVYGSVPATCFPPTAGLASSWNPDLTYQVGQAMGEECIQEEVAVILGPGINIKRSPLGGRNFEYYSEDPVLAGHQAAGLVDGVQSKGVGTSLKHFAANNQETDRLRVSSDIDERTLREIYLPAFEYVVKHAKPWTIMCAYNKLNGVYGSENRWLLTDVLRGEWGYQGLVMSDWGAVHDRAAALRAGLNLEMPPSASDHEVVEAVRAGNLDKDQLDRMAQGVLDLIEKAKPAMSQKGYRYDVEAHDQVARQAAQESIVMLKNEDGVLPLAPGEKVALIGEFARTPRYQGGGSSHITPTKVTTALDSFKETGMDVDFVPGFTLDEAPQDQSLTDQAVKAAADADKVVLFLGLPEDAESEGFDRTDIDLPTKQLDLLRAVSQVNDQVVVVLSNGSVVSVVDWLPQAKAVLESWLLGQAGGQAVVDILTGGANPSGRLPETIPVRLEDNPSITSFPGEEGHSRYGEGIYVGYRYYDTFNKPVAFPFGFGLSYSTFEISNVRVEKTGPNAVRVDLTVTNTSGIDGAETVQVYVAPCASKVGRPSHELKSFAKVFLKAGESQEISLDLDERDFAYWSTAMNEWHVEAGTYGIEVGTSSRDLVSKLDVDLDGDGLFVRLNSNSTMEEWREDQVGGPIMKSHVEGGKVPLPNDPNTAKLFDSMPLASVITLSGGDGNSVVADMITDYQKAIEQQGLTGASRGSE | 54.8 | <0.5 | <0.5 |

Reference: patent US20240026407A1, “MODIFICATION OF SAPONINS” (GLAXOSMITHKLINE BIOLOGICALS SA, priority 2020, published 2024)
